We go through one molecule from patent US20250382367A1 (published 2025).

Test [1] concerns the target T1, biotinylated CD150 protein (UniProt Q13291 21-237, labeled with biotin, sites not stated).
T1 chain: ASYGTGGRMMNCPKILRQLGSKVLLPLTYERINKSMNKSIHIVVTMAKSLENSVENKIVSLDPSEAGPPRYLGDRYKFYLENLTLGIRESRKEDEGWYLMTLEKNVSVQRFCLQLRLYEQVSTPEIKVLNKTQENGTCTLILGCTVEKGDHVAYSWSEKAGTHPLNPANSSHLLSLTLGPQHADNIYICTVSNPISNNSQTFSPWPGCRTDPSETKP
Nature of the test: BLI. On the technique in general: BLI is a label-free optical method that tracks binding on a fibre tip over time.

For test [2], the target named is CD150 protein (extracellular domain, hFc fragment cleaved off with TEV protease) (UniProt Q13291). Put plainly: non-competitive ELISA; CD150 coated at 10 ug/mL, nanobody Fc fusion diluted 1:4 in series, HRP anti-IgG1 Fc detection. (In general: An ELISA detects its analyte on a solid surface through an enzyme-linked reagent.)

B1: nanobody Fc fusion protein (anti-CD150 nanobody fused with human IgG1 Fc) (Fc fusion)
chain: QVQLVESGGGLVQAGGSLRLSCAASGRAFSDYAVGWFRQAPGREREFVATISWSGFSTYYADSVKGRFTISRDNAEKTVTLQMNSLKPEDTAVYYCAADRNGTSFPYIRRDEYDYWGQGTQVT
The molecule B1 registered a Kd in test [1] of 20.1 nM. The EC50 in test [2] came out at 0.0333 µg/mL.

Usually Kd stands for the concentration at which binding is half-saturated. A word on the EC50: it is the concentration giving half of the maximal effect. Low values mean an effect from little substance, high ones a need for much substance.
